In patent publication US20210130474A1 (DRAGONFLY THERAPEUTICS, published 2021):

Legend:
[1] = target: T1, CAIX expressed on human renal cell carcinoma line A498 (human, UniProt Q16790 38-459); experiment: cell-based or functional assay
[2] = target: T1, CAIX expressed on human renal cell …; experiment: flow cytometry on A498 cells, MFI fold over background
Description: Human renal cell carcinoma line A498 expressing CAIX was used to assay the binding of TriNKETs to the tumor associated antigen CAIX.

B1: A49-TriNKET-CAIX (ADI-27749 and a CAIX-binding domain) (bispecific antibody, V domains shown)
VH 1: EVQLVESGGGLVKPGGSLRLSCAASGFTFSSYSMNWVRQAPGKGLEWVSSISSSSSYIYYADSVKGRFTISRDNAKNSLYLQMNSLRAEDTAVYYCARGAPMGAAAGWFDPWGQGTLVTVSS
VL 1: DIQMTQSPSSVSASVGDRVTITCRASQGISSWLAWYQQKPGKAPKLLIYAASSLQSGVPSRFSGSGSGTDFTLTISSLQPEDFATYYCQQGVSFPRTFGGGTKVEIK
VH 2: QVELVESGGGLVQPGGSLRLSCAASGFTFSSYGMSWVRQAPGKGLEWVSGISSLGSTTYYADSVKGRFTISRDNSKNTLYLQMNSLRAEDTAVYYCARTGSPGTFMHGDHWGQGTLVTVSS
VL 2: DIQMTQSPSSLSASVGDRVTITCRASQDINNYLSWYQQKPGKAPKLLIYGASNLQSGVPSRFSGSGSGTDFTLTISSLQPEDFAVYYCQQYYGRPTTFGQGTKVEIK
[1]
  specific lysis of A498 target cells by rested KHYG-1 cells (DELFIA cytotoxicity assay), increase over co-culture without TriNKET: ~20%

B2: F47-TriNKET-CAIX (ADI-29447 and a CAIX-binding domain) (bispecific antibody, V domains shown)
VH 1: QVQLQQWGAGLLKPSETLSLTCAVYGGSFSGYYWSWIRQPPGKGLEWIGEIDHSGSTNYNPSLKSRVTISVDTSKNQFSLKLSSVTAADTAVYYCARARGPWSFDPWGQGTLVTVSS
VL 1: DIQMTQSPSTLSASVGDRVTITCRASQSISSWLAWYQQKPGKAPKLLIYKASSLESGVPSRFSGSGSGTEFTLTISSLQPDDFATYYCQQYDTFITFGGGTKVEIK
VH 2: QVELVESGGGLVQPGGSLRLSCAASGFTFSSYGMSWVRQAPGKGLEWVSGISSLGSTTYYADSVKGRFTISRDNSKNTLYLQMNSLRAEDTAVYYCARTGSPGTFMHGDHWGQGTLVTVSS
VL 2: DIQMTQSPSSLSASVGDRVTITCRASQDINNYLSWYQQKPGKAPKLLIYGASNLQSGVPSRFSGSGSGTDFTLTISSLQPEDFAVYYCQQYYGRPTTFGQGTKVEIK
[2]
  binding result: binds

B3: E79-TriNKET-CAIX (ADI-29379 and a CAIX-binding domain) (bispecific antibody, V domains shown)
VH 1: QVQLVQSGAEVKKPGASVKVSCKASGYTFTSYYMHWVRQAPGQGLEWMGIINPSGGSTSYAQKFQGRVTMTRDTSTSTVYMELSSLRSEDTAVYYCARGAPNYGDTTHDYYYMDVWGKGTTVTVSS
VL 1: EIVMTQSPATLSVSPGERATLSCRASQSVSSNLAWYQQKPGQAPRLLIYGASTRATGIPARFSGSGSGTEFTLTISSLQSEDFAVYYCQQYDDWPFTFGGGTKVEIK
VH 2: QVELVESGGGLVQPGGSLRLSCAASGFTFSSYGMSWVRQAPGKGLEWVSGISSLGSTTYYADSVKGRFTISRDNSKNTLYLQMNSLRAEDTAVYYCARTGSPGTFMHGDHWGQGTLVTVSS
VL 2: DIQMTQSPSSLSASVGDRVTITCRASQDINNYLSWYQQKPGKAPKLLIYGASNLQSGVPSRFSGSGSGTDFTLTISSLQPEDFAVYYCQQYYGRPTTFGQGTKVEIK
[1]
  specific lysis of A498 target cells by rested KHYG-1 cells (DELFIA cytotoxicity assay), increase over co-culture without TriNKET: ~20%

B4: A44-TriNKET-CAIX (ADI-27744 and a CAIX-binding domain) (bispecific antibody, V domains shown)
VH 1: not shown
VL 1: DIQMTQSPSSVSASVGDRVTITCRASQGIDSWLAWYQQKPGKAPKLLIYAASSLQSGVPSRFSGSGSGTDFTLTISSLQPEDFATYYCQQGVSYPRTFGGGTKVEIK
VH 2: QVELVESGGGLVQPGGSLRLSCAASGFTFSSYGMSWVRQAPGKGLEWVSGISSLGSTTYYADSVKGRFTISRDNSKNTLYLQMNSLRAEDTAVYYCARTGSPGTFMHGDHWGQGTLVTVSS
VL 2: DIQMTQSPSSLSASVGDRVTITCRASQDINNYLSWYQQKPGKAPKLLIYGASNLQSGVPSRFSGSGSGTDFTLTISSLQPEDFAVYYCQQYYGRPTTFGQGTKVEIK
[1]
  specific lysis of A498 target cells by rested KHYG-1 cells (DELFIA cytotoxicity assay), increase over co-culture without TriNKET: ~20%
